Test results taken from the supplement of paper PMC6757056.
± gives the standard deviation of the averaged measurements.

B1: library; a variant is named by its letters at N, in order (parent)
chain: GCUGUCACCGGUGCUUGGUACGUUAUAUUCAGCCGGUCUGAUGAGUCUNNNNNNAGACGAAACAGC

Columns and labels:
(6R,S)-folinic acid [1] = variants of: B1; test: normalized RNA/DNA level without ligand (relative to sTRSVctl = 100) (log10 (% of sTRSVctl)); HEK293T overexpressing SLC46A1; higher = less ribozyme self-cleavage, higher mRNA level; details: without (6R,S)-folinic acid; ligand present: no
Outline: (§1)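 Ribozyme switch library plasmids linked to reporters were introduced into HEK293T cells at 4 µg per 6-well well, with ligand, if any, added 1 h before. Total RNA was extracted with EDTA 72 h later, reverse-transcribed, amplified, barcoded and sequenced. RNA level was computed from RNA over DNA reads relative to a spiked-in non-cleaving sequence or the top sequences, then scaled and log-transformed. The top set was 25 sequences, values were ×100 and log10, and the cutoff was ≥100 DNA reads.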

(6R,S)-folinic acid [2] = variants of: B1; test: normalized RNA/DNA level with ligand (relative to sTRSVctl = 100) (log10 (% of sTRSVctl)); HEK293T overexpressing SLC46A1; ligand concentration (+) RNA-Seq: 6 mM; higher = less ribozyme self-cleavage, higher mRNA level; details: with (6R,S)-folinic acid; ligand present: yes
Outline: as §1

Row | Variant | normalized RNA/DNA level without ligand (log10) ((6R,S)-folinic acid [1]) | normalized RNA/DNA level with ligand (log10) ((6R,S)-folinic acid [2])
1 | GCUGUCACCGGUGCUUGGUACGUUAUAUUCAGCCGGUCUGAUGAGUCUCCGAAAAGACGAAACAGC [CCGAAA] | 2.0005 ± 0.0006 | 2 ± 0.016
2 | GCUGUCACCGGUGCUUGGUACGUUAUAUUCAGCCGGUCUGAUGAGUCUGUUACGAGACGAAACAGC [GUUACG] | 1.988 ± 0.012 | 2.02 ± 0.034
3 | GCUGUCACCGGUGCUUGGUACGUUAUAUUCAGCCGGUCUGAUGAGUCUCCCAUUAGACGAAACAGC [CCCAUU] | 2.09 ± 0.024 | 2.079 ± 0.01
4 | GCUGUCACCGGUGCUUGGUACGUUAUAUUCAGCCGGUCUGAUGAGUCUGCCGAUAGACGAAACAGC [GCCGAU] | 2.015 ± 0.007 | 2.05 ± 0.03
5 | GCUGUCACCGGUGCUUGGUACGUUAUAUUCAGCCGGUCUGAUGAGUCUUCACGGAGACGAAACAGC [UCACGG] | 1.965 ± 0.019 | 2 ± 0.043
6 | GCUGUCACCGGUGCUUGGUACGUUAUAUUCAGCCGGUCUGAUGAGUCUCACCAAAGACGAAACAGC [CACCAA] | 1.97 ± 0.016 | 1.99 ± 0.022
7 | GCUGUCACCGGUGCUUGGUACGUUAUAUUCAGCCGGUCUGAUGAGUCUCUGGUCAGACGAAACAGC [CUGGUC] | 2.057 ± 0.0038 | 2.04 ± 0.044
8 | GCUGUCACCGGUGCUUGGUACGUUAUAUUCAGCCGGUCUGAUGAGUCUUGCUCCAGACGAAACAGC [UGCUCC] | 2.062 ± 0.0087 | 2.03 ± 0.081
9 | GCUGUCACCGGUGCUUGGUACGUUAUAUUCAGCCGGUCUGAUGAGUCUCUCGUCAGACGAAACAGC [CUCGUC] | 2.15 ± 0.022 | 2.12 ± 0.035
10 | GCUGUCACCGGUGCUUGGUACGUUAUAUUCAGCCGGUCUGAUGAGUCUAUCUUCAGACGAAACAGC [AUCUUC] | 2.07 ± 0.022 | 2.05 ± 0.045
11 | GCUGUCACCGGUGCUUGGUACGUUAUAUUCAGCCGGUCUGAUGAGUCUUACGGCAGACGAAACAGC [UACGGC] | 2.05 ± 0.0049 | 2.05 ± 0.063
12 | GCUGUCACCGGUGCUUGGUACGUUAUAUUCAGCCGGUCUGAUGAGUCUUUACAGAGACGAAACAGC [UUACAG] | 1.898 ± 0.017 | 1.99 ± 0.027
13 | GCUGUCACCGGUGCUUGGUACGUUAUAUUCAGCCGGUCUGAUGAGUCUAGAUCGAGACGAAACAGC [AGAUCG] | 1.992 ± 0.0077 | 2.013 ± 0.019
14 | GCUGUCACCGGUGCUUGGUACGUUAUAUUCAGCCGGUCUGAUGAGUCUCGCGCAAGACGAAACAGC [CGCGCA] | 2.036 ± 0.014 | 2.04 ± 0.026
15 | GCUGUCACCGGUGCUUGGUACGUUAUAUUCAGCCGGUCUGAUGAGUCUCGGCACAGACGAAACAGC [CGGCAC] | 2.102 ± 0.011 | 2.052 ± 0.0022
16 | GCUGUCACCGGUGCUUGGUACGUUAUAUUCAGCCGGUCUGAUGAGUCUGGUGUAAGACGAAACAGC [GGUGUA] | 1.972 ± 0.01 | 2.01 ± 0.02
17 | GCUGUCACCGGUGCUUGGUACGUUAUAUUCAGCCGGUCUGAUGAGUCUUAAGAUAGACGAAACAGC [UAAGAU] | 1.9446 ± 0.0012 | 2.01 ± 0.024
18 | GCUGUCACCGGUGCUUGGUACGUUAUAUUCAGCCGGUCUGAUGAGUCUCUACACAGACGAAACAGC [CUACAC] | 2.05 ± 0.011 | 2.023 ± 0.016
19 | GCUGUCACCGGUGCUUGGUACGUUAUAUUCAGCCGGUCUGAUGAGUCUGCUACUAGACGAAACAGC [GCUACU] | 2.019 ± 0.0099 | 1.98 ± 0.043
20 | GCUGUCACCGGUGCUUGGUACGUUAUAUUCAGCCGGUCUGAUGAGUCUGCCCUUAGACGAAACAGC [GCCCUU] | 2.021 ± 0.0059 | 2.01 ± 0.044
21 | GCUGUCACCGGUGCUUGGUACGUUAUAUUCAGCCGGUCUGAUGAGUCUUAUCCUAGACGAAACAGC [UAUCCU] | 2.009 ± 0.0051 | 2 ± 0.048

Row | Variant | normalized RNA/DNA level without ligand (log10) ((6R,S)-folinic acid [1]) | normalized RNA/DNA level with ligand (log10) ((6R,S)-folinic acid [2])
22 | GCUGUCACCGGUGCUUGGUACGUUAUAUUCAGCCGGUCUGAUGAGUCUCUACGUAGACGAAACAGC [CUACGU] | 2 ± 0.01 | 1.99 ± 0.035
23 | GCUGUCACCGGUGCUUGGUACGUUAUAUUCAGCCGGUCUGAUGAGUCUGUUCCUAGACGAAACAGC [GUUCCU] | 2.03 ± 0.0037 | 2.04 ± 0.045
24 | GCUGUCACCGGUGCUUGGUACGUUAUAUUCAGCCGGUCUGAUGAGUCUCCUGUCAGACGAAACAGC [CCUGUC] | 2.022 ± 0.0031 | 2.01 ± 0.041
25 | GCUGUCACCGGUGCUUGGUACGUUAUAUUCAGCCGGUCUGAUGAGUCUCUGUGCAGACGAAACAGC [CUGUGC] | 2.01 ± 0.05 | 2.02 ± 0.028
26 | GCUGUCACCGGUGCUUGGUACGUUAUAUUCAGCCGGUCUGAUGAGUCUUAUACAAGACGAAACAGC [UAUACA] | 1.965 ± 0.003 | 2.01 ± 0.05
27 | GCUGUCACCGGUGCUUGGUACGUUAUAUUCAGCCGGUCUGAUGAGUCUGGUGGCAGACGAAACAGC [GGUGGC] | 1.98 ± 0.023 | 2.02 ± 0.037
28 | GCUGUCACCGGUGCUUGGUACGUUAUAUUCAGCCGGUCUGAUGAGUCUCCGACGAGACGAAACAGC [CCGACG] | 2.033 ± 0.013 | 2.0354 ± 0.0001
29 | GCUGUCACCGGUGCUUGGUACGUUAUAUUCAGCCGGUCUGAUGAGUCUUCGACGAGACGAAACAGC [UCGACG] | 1.867 ± 0.017 | 1.9974 ± 0.0011
30 | GCUGUCACCGGUGCUUGGUACGUUAUAUUCAGCCGGUCUGAUGAGUCUCCGCUUAGACGAAACAGC [CCGCUU] | 2.04 ± 0.024 | 2.0508 ± 0.0014
31 | GCUGUCACCGGUGCUUGGUACGUUAUAUUCAGCCGGUCUGAUGAGUCUGGCAUUAGACGAAACAGC [GGCAUU] | 2.08 ± 0.025 | 2.04 ± 0.039
32 | GCUGUCACCGGUGCUUGGUACGUUAUAUUCAGCCGGUCUGAUGAGUCUGGUCGCAGACGAAACAGC [GGUCGC] | 1.952 ± 0.012 | 2 ± 0.032
33 | GCUGUCACCGGUGCUUGGUACGUUAUAUUCAGCCGGUCUGAUGAGUCUCUGAAGAGACGAAACAGC [CUGAAG] | 1.881 ± 0.0031 | 1.995 ± 0.0079
34 | GCUGUCACCGGUGCUUGGUACGUUAUAUUCAGCCGGUCUGAUGAGUCUACUCCAAGACGAAACAGC [ACUCCA] | 2.056 ± 0.0064 | 2.04 ± 0.054
35 | GCUGUCACCGGUGCUUGGUACGUUAUAUUCAGCCGGUCUGAUGAGUCUCGCGGUAGACGAAACAGC [CGCGGU] | 2.003 ± 0.019 | 2.035 ± 0.015
36 | GCUGUCACCGGUGCUUGGUACGUUAUAUUCAGCCGGUCUGAUGAGUCUCUUGUUAGACGAAACAGC [CUUGUU] | 2.02 ± 0.03 | 1.995 ± 0.018
37 | GCUGUCACCGGUGCUUGGUACGUUAUAUUCAGCCGGUCUGAUGAGUCUUAUUCAAGACGAAACAGC [UAUUCA] | 2.019 ± 0.0067 | 2.05 ± 0.037
38 | GCUGUCACCGGUGCUUGGUACGUUAUAUUCAGCCGGUCUGAUGAGUCUAUUACUAGACGAAACAGC [AUUACU] | 2.042 ± 0.012 | 2.04 ± 0.031
39 | GCUGUCACCGGUGCUUGGUACGUUAUAUUCAGCCGGUCUGAUGAGUCUGCAACCAGACGAAACAGC [GCAACC] | 2.033 ± 0.0054 | 2.019 ± 0.019
40 | GCUGUCACCGGUGCUUGGUACGUUAUAUUCAGCCGGUCUGAUGAGUCUCGAUGCAGACGAAACAGC [CGAUGC] | 2.039 ± 0.0072 | 2.008 ± 0.0096
41 | GCUGUCACCGGUGCUUGGUACGUUAUAUUCAGCCGGUCUGAUGAGUCUAGAGCCAGACGAAACAGC [AGAGCC] | 2.05 ± 0.003 | 2.04 ± 0.045
